Measured values taken from US20160075733A1.

Biological target: low density lipoprotein receptor (LDLR) expressed on HEK293 cells transfected with LDLR modified mRNA (mRNA SEQ ID NO: 21463) (human) (UniProt P01130)
Assay: Flow cytometry (FACS): increasing amounts of BODIPY-LDL on HEK293 cells transfected with LDLR mRNA, 1.0 h at 37 C

low density lipoprotein receptor (LDLR) expressed on HEK293 cells transfected with LDLR modified mRNA (mRNA SEQ ID NO: 21463) (human), sequence (P01130 22-860): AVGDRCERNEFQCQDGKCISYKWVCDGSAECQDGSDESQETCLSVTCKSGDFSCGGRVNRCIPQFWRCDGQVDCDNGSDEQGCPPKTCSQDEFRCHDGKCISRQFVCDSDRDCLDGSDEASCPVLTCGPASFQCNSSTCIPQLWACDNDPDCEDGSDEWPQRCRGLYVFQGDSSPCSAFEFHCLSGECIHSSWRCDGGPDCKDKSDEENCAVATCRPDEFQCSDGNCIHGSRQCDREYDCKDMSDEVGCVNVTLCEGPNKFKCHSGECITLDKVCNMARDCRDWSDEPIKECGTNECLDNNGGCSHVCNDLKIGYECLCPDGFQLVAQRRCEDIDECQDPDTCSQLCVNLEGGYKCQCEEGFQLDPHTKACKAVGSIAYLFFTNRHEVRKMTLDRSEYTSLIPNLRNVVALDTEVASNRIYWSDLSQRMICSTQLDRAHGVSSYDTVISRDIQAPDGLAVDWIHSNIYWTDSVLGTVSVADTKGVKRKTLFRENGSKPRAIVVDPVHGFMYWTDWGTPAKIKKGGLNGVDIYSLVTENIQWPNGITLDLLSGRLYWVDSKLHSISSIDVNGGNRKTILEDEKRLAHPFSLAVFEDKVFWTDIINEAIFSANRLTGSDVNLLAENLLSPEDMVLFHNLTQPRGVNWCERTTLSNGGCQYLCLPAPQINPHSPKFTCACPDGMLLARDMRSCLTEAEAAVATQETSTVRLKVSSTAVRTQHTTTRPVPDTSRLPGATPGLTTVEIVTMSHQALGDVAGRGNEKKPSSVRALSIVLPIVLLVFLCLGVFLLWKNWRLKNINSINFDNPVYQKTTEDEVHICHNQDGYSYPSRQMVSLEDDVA

- Kd: 0.06 µg/mL
Substance: BODIPY-labeled LDL (low density lipoprotein) (from UniProt P04114 28-4563) (ligand)
